Common to all, as to assay: cell-based or functional assay
The target of experiment [1] is native VP6 of bovine rotavirus C486 (SbI; P[1]G6), in the virus (bovine rotavirus strain C486).
The target in experiment [2] is native VP6 of bovine rotavirus IND (SbI; P[5]G6), in the virus (bovine rotavirus strain IND).
The target in experiment [3] is native VP6 of equine rotavirus H2 (Sb no I, no II; P[12]G3), in the virus (equine rotavirus strain H2).
Experiment [4] addresses native VP6 of human rotavirus Wa (SbII; P[8]G1), in the virus (human rotavirus strain Wa).

native VP6 of equine rotavirus H2 (Sb no I, no II; P[12]G3), in the virus (equine rotavirus strain H2), sequence (P16488 whole entry): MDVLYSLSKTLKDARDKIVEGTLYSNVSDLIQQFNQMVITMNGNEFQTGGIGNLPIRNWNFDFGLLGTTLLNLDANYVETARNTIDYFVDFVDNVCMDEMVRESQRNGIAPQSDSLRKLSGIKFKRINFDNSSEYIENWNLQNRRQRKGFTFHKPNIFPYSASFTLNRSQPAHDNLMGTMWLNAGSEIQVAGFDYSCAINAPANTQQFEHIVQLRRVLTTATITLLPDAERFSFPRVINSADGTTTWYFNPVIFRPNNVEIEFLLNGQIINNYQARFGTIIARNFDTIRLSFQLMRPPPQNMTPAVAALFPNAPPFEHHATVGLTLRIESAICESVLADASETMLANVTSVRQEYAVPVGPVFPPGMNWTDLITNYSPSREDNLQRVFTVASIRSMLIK
native VP6 of human rotavirus Wa (SbII; P[8]G1), in the virus (human rotavirus strain Wa), sequence (P03530 whole entry): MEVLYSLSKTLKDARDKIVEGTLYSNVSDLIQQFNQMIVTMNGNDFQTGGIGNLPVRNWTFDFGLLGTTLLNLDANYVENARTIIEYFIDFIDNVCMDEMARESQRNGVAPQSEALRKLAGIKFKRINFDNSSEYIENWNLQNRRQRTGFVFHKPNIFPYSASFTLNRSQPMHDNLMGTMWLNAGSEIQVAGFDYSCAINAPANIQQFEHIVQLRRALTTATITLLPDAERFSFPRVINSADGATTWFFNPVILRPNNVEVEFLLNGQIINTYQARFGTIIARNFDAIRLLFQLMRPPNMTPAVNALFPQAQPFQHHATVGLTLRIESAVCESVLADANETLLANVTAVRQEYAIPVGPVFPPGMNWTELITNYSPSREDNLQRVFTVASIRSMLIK

In the case of “non-related VHH, directed against a cellular protein”, the VN antibody titre (inverse of the highest VHH dilution that reduces >80% of the FFU per 100 FFU), VHH at 0.4 mg/ml (titre (reciprocal dilution)) in experiment [1], in experiment [2], in experiment [3] and in experiment [4] was < 8 throughout.

B1: bivalent VHH biv2KA4 (bispecific antibody)
chain: MADVQLQASGGGLVQAGDSLRLSCVQSGPGRYGVGWFRQAPGKEREFVAAVSGSGGSKYYGDSVQGRFTISKDDAKNTVYLQMNNLKPEDTAVYYCAVRRTYSGSNLWHRSDEYDSWGPGTQVTVSSSGPSTPPRPSPSTPPSDVQLQASGGGLVQAGDSLRLSCVQSGPGRYGVGWFRQAPGKEREFVAAVSGSGGSKYYGDSVQGRFTISKDDAKNTVYLQMNNLKPEDTAVYYCAVRRTYSGSNLWHRSDEYDSWGPGTQVTVSSGRHHHHHH
With B1, the VN antibody titre (inverse of the highest VHH dilution that reduces >80% of the FFU per 100 FFU), VHH at 0.5 mg/ml (titre (reciprocal dilution)) is < 8 in experiment [1], < 8 in experiment [2], < 8 in experiment [3] and 32 in experiment [4].

B2: VHH 3B2 anti VP6 (VHH)
VHH: DVQLQASGGGLAQAGDSLTLSCAASGRTFSGYVVGWFRQAPGAEREFVGAIRWSEDSTWYGDSMKGRILISRNNIKNTVNLQMFNLKPEDTAVYVCAAGAGDIVTTETSYNYWGRGTQVTVSS
Take B2: the VN antibody titre (inverse of the highest VHH dilution that reduces >80% of the FFU per 100 FFU), VHH at 2 mg/ml (titre (reciprocal dilution)) turned out to be 1024 in experiment [1], 1024 in experiment [2], 512 in experiment [3] and 8192 in experiment [4].

B3: VHH 3A6 anti VP6 (VHH)
VHH: EVQLQASGGGFVQPGGSLSLSCAVSGRSFGDDVMGWFRQAPGKEREFVSAIRFRSNSPFYGDPGKGRFTIARDSAKDTVYLHMYRLRPDDTAVYYCAVGDGALVNRASDYTYWGQGTQVTVSS
For B3, the VN antibody titre (inverse of the highest VHH dilution that reduces >80% of the FFU per 100 FFU), VHH at 2 mg/ml (titre (reciprocal dilution)) was found to be 1024 in experiment [1], 1024 in experiment [2], 128 in experiment [3] and 2048 in experiment [4].

B4: VHH 2KD1 anti VP6 (VHH)
VHH: DVQLQASGGGFVQPGDSLSLSCAASGGTFSSYSIGWFRQGPGKEREFVATISSSDSPWYGEPAKGRFTVARVNAKNTAYLHLNRLKPEDTATYYCAAGSVQHMANENEYVYWGQGTQVTVSS
On to B4, for which the VN antibody titre (inverse of the highest VHH dilution that reduces >80% of the FFU per 100 FFU), VHH at 2 mg/ml (titre (reciprocal dilution)) in experiment [1] is 2048; in experiment [2], 2048; in experiment [3], 512; in experiment [4], 8192.

B5: VHH 2KA4 anti VP6 (VHH)
VHH: DVQLQASGGGLVQAGDSLRLSCVQSGPGRYGVGWFRQAPGKEREFVAAVSGSGGSKYYGDSVQGRFTISKDDAKNTVYLQMNNLKPEDTAVYYCAVRRTYSGSNLWHRSDEYDSWGPGTQVTVSS
With B5, the VN antibody titre (inverse of the highest VHH dilution that reduces >80% of the FFU per 100 FFU), VHH at 2 mg/ml (titre (reciprocal dilution)) in experiment [1], in experiment [2], in experiment [3] and in experiment [4] was < 8 in each case.

(Values after patent publication US20140178405A1.)
